From IntAct's records for PubMed 11231575

Biological target: arp3_bovin ACTR3 (UniProt P61157)

Row | Substance | effect of a mutation on the interaction
1 | Src substrate cortactin (Mus musculus), Q60598 D20G;D21A | disrupting interaction
2 | Src substrate cortactin (Mus musculus), Q60598 W22A | disrupting interaction
